# Assay results from US20130347134A1 (published 2013).
# T1: murine platelet glycoprotein Ib alpha (GPIb α) on mouse platelets (mouse, UniProt O35930 17-734)
# T1 construct: whole, on cells; Native receptor on mouse platelets or whole blood; also called murine GPIb α; mGPIb-α
# T1 sequence (looked up): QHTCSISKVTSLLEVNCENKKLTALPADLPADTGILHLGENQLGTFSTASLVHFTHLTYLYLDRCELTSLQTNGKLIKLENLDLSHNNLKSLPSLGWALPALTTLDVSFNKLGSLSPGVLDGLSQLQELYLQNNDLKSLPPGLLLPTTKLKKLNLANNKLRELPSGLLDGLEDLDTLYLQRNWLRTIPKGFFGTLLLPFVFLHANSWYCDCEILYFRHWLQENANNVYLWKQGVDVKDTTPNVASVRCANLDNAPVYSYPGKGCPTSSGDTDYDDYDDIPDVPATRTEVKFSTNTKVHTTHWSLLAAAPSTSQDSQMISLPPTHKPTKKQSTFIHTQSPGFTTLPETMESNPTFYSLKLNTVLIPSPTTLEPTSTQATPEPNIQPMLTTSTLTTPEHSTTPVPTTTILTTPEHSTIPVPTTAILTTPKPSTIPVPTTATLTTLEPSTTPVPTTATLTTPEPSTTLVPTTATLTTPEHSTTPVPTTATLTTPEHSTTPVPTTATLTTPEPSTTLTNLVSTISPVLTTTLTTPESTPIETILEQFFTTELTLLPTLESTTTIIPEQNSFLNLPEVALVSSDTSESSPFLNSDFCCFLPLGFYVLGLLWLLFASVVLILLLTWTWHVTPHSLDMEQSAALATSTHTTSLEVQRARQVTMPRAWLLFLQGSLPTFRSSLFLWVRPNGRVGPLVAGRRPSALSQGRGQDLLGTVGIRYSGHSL
# Key:
# [1] = target: T2, human platelet glycoprotein Ib alpha (GPIb α) on human platelets (human, UniProt P07359 17-652); experiment: human whole blood over immobilized protein, parallel-plate flow chamber, 1600 s^-1
# T2 construct: whole, on cells; Native receptor on washed platelets or whole blood; also called GPIb alpha; hGPIb-α
# Protocol: (§1) Ex vivo platelet adhesion studies. Experiments were performed in a parallel-plate flow chamber as previously described (Offermanns, S., et al., 2006). […] Subsequently, the plate was washed and non-specific interactions blocked by the addition of TBS containing 3% BSA, pH 7.4 (1 hour, 37° C.). Human or murine plasma obtained from heparinized whole blood was added and the plates placed at 37° C. for an additional 2 hours. […] The number of platelets attached per unit area (0.07 mm²) and translocation velocities were determined by off-line analysis (Image-Pro Plus, Media Cybernetics). For GPIb α inhibition studies, the function-blocking mAb 6D1 (20 μg/ml) or mAb SZ2 (20 μg/ml; Beckman Coulter, Brea, Calif.) was added to anticoagulated human blood for 30 minutes prior to use. Experiments were performed in triplicate on two separate days. An ELISA was used to ensure equivalent coating concentration of plasma and recombinant proteins (Denis, C. et al., 1998).
# [2] = target: T1, murine platelet glycoprotein Ib alpha …; experiment: mouse whole blood perfused 4 min over surface-immobilized recombinant VWF-A1, 1600 s-1
# Protocol: as §1
binder,measurement,setting,value
"recombinant wild-type murine VWF-A1 domain protein (amino acid residues 1238 to 1471), Example 3 (ligand, Generated in bacteria, with a single disulfide 1272-1458; also called murine rVWF-A1; WT murine VWF-A1 domain protein) QEPGGLVAPPTDAPVSSTTPYVEDTPEPPLHNFYCSKLLDLVFLLDGSSMLSEAEFEVLKAFVVGMMERLHISQKRIRVAVVEYHDGSRAYLELKARKRPSELRRITSQIKYTGSQVASTSEVLKYTLFQIFGKIDRPEASHITLLLTASQEPPRMARNLVRYVQGLKKKKVIVIPVGIGPHASLKQIRLIEKQAPENKAFLLSGVDELEQRRDEIVSYLCDLAPEAPAPTQPP",platelet deposition relative to same-species control,[1],25%
same,binding result,[2],binds
